Data taken from publication PMC8115037, “Paracoccus denitrificans: a genetically tractable model system for studying respiratory complex I” (Scientific Reports, 2021).

B1: complex I (NADH:ubiquinone oxidoreductase), Pd-CI (Paracoccus denitrificans PD1222) (protein)
chain 1: MDGDIRKNSYDDGSMDALTGEQSIRNFNINFGPQHPAAHGVLRMVLELDGEIVERADPHIGLLHRGTEKLMESRTYLQNLPYLDRLDYVAPMNQEHAWCLAIERLTGTVIPRRASLIRVLYSEIGRILNHLMGVTTGAMDVGALTPPLWGFEAREELMIFYERACGARLHAAYFRPGGVHQDLPPDLLDDIEEWCERFPKLVDDLDTLLTENRIFKQRLVDIGIVTEADALDWGYTGVMVRGSGLAWDLRRSQPYECYDEFDFQIPVGRNGDCYDRYLCRMAEMRESCKIMQQAVQKLRAEPAGDVLARGKLTPPRRAEMKRDMESLIHHFKLYTEGFKVPAGEVYAAVEAPKGEFGVYLVADGTNKPWRAKLRAPGFAHLQSIDWMSRGHMLADVPAIIATLDIVFGEVDR
chain 2: MMTGLNTAGADRDLATAELNRELQDKGFLLTTTEDIINWARNGSLHWMTFGLACCAVEMMQTSMPRYDLERFGTAPRASPRQSDLMIVAGTLTNKMAPALRKVYDQMPEPRYVISMGSCANGGGYYHYSYSVVRGCDRIVPVDIYVPGCPPTAEALLYGILQLQRRIRRTGTLVR
chain 3: MAEFWASPYGFALSMLLQGLAVIAFVMGSLIFMVYGDRKIWAAVQMRRGPNVVGPWGLLQTFADALKYIVKEIVIPAGADKFVYFLAPFLSMMLALFAFVVIPFDEGWVMANINVGILFIFAASSLEVYGVIMGGWASNSKYPFLASLRSAAQMISYEVSLGLIIIGIIISTGSMNLTAIVEAQRGDYGLLNWYWLPHLPMVVLFFVSALAECNRPPFDLVEAESELVAGFMTEYSSTPYLLFMAGEYIAMYLMCALLSLLFFGGWLSPVPFIADGWWWMVIKMWFWFYMFAMVKAIVPRYRYDQLMRIGWKVFLPLSLGWVVLVAILARYEILGGFWARFAVGG
chain 4: MLNDQDRIFTNLYGMGDRSLAGAKKRGHWDGTAAIIQRGRDKIIDEMKASGLRGRGGAGFPTGMKWSFMPKESDGRPSYLVINADESEPATCKDREIMRHDPHTLIEGALIASFAMGAHAAYIYIRGEFIREREALQAAIDECYDAGLLGRNAAGSGWDFDLYLHHGAGAYICGEETALLESLEGKKGMPRMKPPFPAGAGLYGCPTTVNNVESIAVVPTILRRGAEWFASFGRPNNAGVKLFGLTGHVNTPCVVEEAMSIPMRELIEKHGGGIRGGWKNLKAVIPGGASCPVLTAEQCENAIMDYDGMRDVRSSFGTACMIVMDQSTDVVKAIWRLSKFFKHESCGQCTPCREGTGWMMRVMERLVRGDAEVEEIDMLFDVTKQVEGHTICALGDAAAWPIQGLIRNFREEIEDRIKAKRTGRMGAMAAE
notes: intact purified complex I, His6-tag on Nqo5; with multisubunit complex (14 core Nqo subunits plus PdNUMM, PdNUYM, PdN7BM)
B2: complex I (NADH:ubiquinone oxidoreductase), Pd-CI (Paracoccus denitrificans PD1222) (protein)
chain 1: B1 chain 1
chain 2: B1 chain 2
chain 3: B1 chain 3
notes: purified complex I reconstituted in proteoliposomes, His6-tag on Nqo5; with multisubunit complex (14 core Nqo subunits plus PdNUMM, PdNUYM, PdN7BM)

How the values were obtained:
Format in all cases: biochemical, Paracoccus denitrificans
Conditions in all cases: FMN, FeS clusters
[1] = substrate: CCCCCCCCCCC1=C(C)C(=O)C(OC)=C(OC)C1=O; assay: KM, NADH:DQ oxidoreduction by purified soluble enzyme
[2] = substrate: COC1=C(OC)C(=O)C(CC=C(C)C)=C(C)C1=O; assay: KM, quinone reduction by purified soluble enzyme
purified protein = substrate: COC1=C(OC)C(=O)C(C/C=C(\C)CC/C=C(\C)CC/C=C(\C)CC/C=C(\C)CC/C=C(\C)CC/C=C(\C)CC/C=C(\C)CC/C=C(\C)CC/C=C(\C)CCC=C(C)C)=C(C)C1=O; assay: purified protein

| Protein | Km [1] [µM] | Km [2] [µM] | Km (purified protein) [µM] |
| --- | --- | --- | --- |
| B1 | 169 ± 15 | 124 ± 8 | – |
| B2 | – | – | 1100 ± 200 |
